Results on 120 sequences are retold here after the supplement of paper PMC10126150.

± gives the standard deviation of the averaged measurements.

The test system of the data set is ATP. Description: switch fluorescence ratio, 500 uM ATP over buffer (Cy3 cluster intensity, sum of 5 cycles each) (fold (ratio)); higher = stronger signal-on switching upon ATP binding; sequences stand for … in TCGTCGGCAGCGTCAGATGTGTATAAGAGACAGTTTTTTTTTTTTTTTTTTTTTTTTT…TC. The settings on record: aptamer strand: ATP DNA aptamer (quencher-CACCTGGGGGAGTATTGCGGAGGAAGG + anchor), 100 nM annealed; ATP concentration: 500 uM. In outline: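 For every switch-domain sequence, the fluorescence ratio is the mean of per-cluster values, each being summed target-cycle Cy3 intensity over summed buffer-cycle Cy3 intensity. Clusters outside 100-1000 RFU were excluded. On a modified Illumina MiSeq flow-cell, the Cy3-labelled switching-strand clusters were annealed to 100 nM quencher-labelled ATP aptamer, imaged in selection buffer and then after 15 min with 500 uM ATP at 22 °C. Five such cycles were run, with NaOH stripping and re-annealing between them.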
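Note: ATP exposure 15 min at 22 °C before imaging.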

For TGGTATGTCA, the switch fluorescence ratio stood at 0.9913 ± 0.0059.

In the case of TGGTATGTGA, the switch fluorescence ratio is 1.01 ± 0.032.

In the case of TGGTATGTGT, the switch fluorescence ratio stood at 1.003 ± 0.0057.

As to TGGTCCAGAA, the switch fluorescence ratio amounted to 0.977 ± 0.016.

Consider TGGTCCCTTG, for which the switch fluorescence ratio amounted to 1.12 ± 0.16.

Turning to TGGTCCGGGG, the switch fluorescence ratio worked out at 1.01 ± 0.087.

TGGTCGCGTT: the switch fluorescence ratio was 0.988 ± 0.043.

Turning to TGGTCGGCTG, the switch fluorescence ratio is 1.007 ± 0.0044.

For the sequence TGGTCGTGGG, the switch fluorescence ratio amounted to 1.01 ± 0.032.

For TGGTCTAGTG, the switch fluorescence ratio worked out at 0.968 ± 0.043.

Regarding TGGTCTATGC, the switch fluorescence ratio turned out to be 1.05 ± 0.012.

Turning to TGGTCTTTTA, the switch fluorescence ratio turned out to be 0.9852 ± 0.0022.

Consider TGGTGAGGAG, for which the switch fluorescence ratio worked out at 0.98 ± 0.013.

With TGGTGCAGGC, the switch fluorescence ratio was found to be 0.702 ± 0.023.

Take TGGTGCTTGG: the switch fluorescence ratio came to 1.04 ± 0.013.

TGGTGGCCCG: the switch fluorescence ratio was determined as 1.04 ± 0.035.

TGGTGGCTTA: the switch fluorescence ratio turned out to be 0.9827 ± 0.0025.

Regarding TGGTGGCTTG, the switch fluorescence ratio is 0.991 ± 0.022.

For TGGTGGGAAT, the switch fluorescence ratio was found to be 1.02 ± 0.011.

Take TGGTGGGGAA: the switch fluorescence ratio was determined as 0.974 ± 0.01.

With TGGTGGTTCG, the switch fluorescence ratio came out at 0.975 ± 0.061.

Regarding TGGTGGTTGC, the switch fluorescence ratio was 0.96 ± 0.051.

TGGTGTAAGT: the switch fluorescence ratio was found to be 1.007 ± 0.0052.

Regarding TGGTGTATGC, the switch fluorescence ratio turned out to be 1.03 ± 0.059.

Turning to TGGTGTGTTT, the switch fluorescence ratio turned out to be 0.978 ± 0.035.

With TGGTTAAAAG, the switch fluorescence ratio came to 0.977 ± 0.051.

In the case of TGGTTAATCG, the switch fluorescence ratio was determined as 0.9949 ± 0.0079.

Take TGGTTACAAA: the switch fluorescence ratio turned out to be 0.997 ± 0.015.

Take TGGTTACACG: the switch fluorescence ratio was determined as 1.06 ± 0.046.

Regarding TGGTTACCTA, the switch fluorescence ratio was found to be 0.987 ± 0.039.

As for TGGTTACGTT, the switch fluorescence ratio worked out at 0.983 ± 0.018.

In the case of TGGTTAGAAA, the switch fluorescence ratio worked out at 1.04 ± 0.017.

TGGTTAGTGG: the switch fluorescence ratio came to 1 ± 0.02.

Take TGGTTATTTT: the switch fluorescence ratio amounted to 0.998 ± 0.036.

Consider TGGTTCCAAA, for which the switch fluorescence ratio is 0.971 ± 0.008.

Consider TGGTTCCAGT, for which the switch fluorescence ratio came to 1.003 ± 0.0058.

For the sequence TGGTTCTGAC, the switch fluorescence ratio came out at 1.03 ± 0.038.

With TGGTTCTGTG, the switch fluorescence ratio worked out at 1.0262 ± 0.00041.

For TGGTTGAGGG, the switch fluorescence ratio stood at 1.01 ± 0.013.

For the sequence TGGTTGAGGT, the switch fluorescence ratio turned out to be 0.963 ± 0.028.

Turning to TGGTTGAGTA, the switch fluorescence ratio turned out to be 0.981 ± 0.017.

Turning to TGGTTGATTG, the switch fluorescence ratio came out at 0.975 ± 0.047.

With TGGTTGCTCT, the switch fluorescence ratio was 0.9891 ± 0.008.

Take TGGTTGGAGC: the switch fluorescence ratio is 0.997 ± 0.029.

For TGGTTGGATG, the switch fluorescence ratio came out at 1.003 ± 0.006.

Regarding TGGTTGGCGG, the switch fluorescence ratio came to 1.03 ± 0.062.

As to TGGTTGGGAC, the switch fluorescence ratio is 0.9953 ± 0.0089.

Take TGGTTGGGGC: the switch fluorescence ratio is 0.986 ± 0.023.

For the sequence TGGTTGTCGT, the switch fluorescence ratio was 1.01 ± 0.033.

As to TGGTTGTTT, the switch fluorescence ratio turned out to be 0.9856 ± 0.0018.

As to TGGTTGTTTG, the switch fluorescence ratio was determined as 0.968 ± 0.035.

With TGGTTTAACA, the switch fluorescence ratio was 0.9924 ± 0.003.

With TGGTTTAGAG, the switch fluorescence ratio was found to be 0.979 ± 0.024.

As to TGGTTTAGGT, the switch fluorescence ratio was 0.995 ± 0.028.

Regarding TGGTTTCA, the switch fluorescence ratio came to 1.02 ± 0.041.

Turning to TGGTTTCAGA, the switch fluorescence ratio turned out to be 0.984 ± 0.019.

Consider TGGTTTGATC, for which the switch fluorescence ratio was 1.01 ± 0.026.

Regarding TGGTTTGGAG, the switch fluorescence ratio is 0.984 ± 0.057.

TGGTTTGGCT: the switch fluorescence ratio worked out at 1.03 ± 0.023.

On to TGGTTTGGGT, for which the switch fluorescence ratio stood at 0.986 ± 0.026.

TGTAAAGATT: the switch fluorescence ratio is 1.0093 ± 0.00041.

Turning to TGTAAAGGAA, the switch fluorescence ratio stood at 0.992 ± 0.024.

Turning to TGTAAATGGG, the switch fluorescence ratio came out at 0.984 ± 0.024.

On to TGTAACGCTG, for which the switch fluorescence ratio came out at 0.974 ± 0.057.

With TGTAACTTCG, the switch fluorescence ratio stood at 1.001 ± 0.0082.

Regarding TGTAAGAGAT, the switch fluorescence ratio amounted to 1.01 ± 0.011.

As to TGTAAGTTTC, the switch fluorescence ratio is 1.04 ± 0.073.

For TGTAATCAAA, the switch fluorescence ratio stood at 1 ± 0.022.

As for TGTAATCTTC, the switch fluorescence ratio stood at 1.01 ± 0.016.

Consider TGTAATTGGG, for which the switch fluorescence ratio came out at 0.9881 ± 0.0015.

On to TGTAATTTGA, for which the switch fluorescence ratio was 0.984 ± 0.021.

On to TGTACGTAGG, for which the switch fluorescence ratio worked out at 1.24 ± 0.21.

Turning to TGTACGTGGC, the switch fluorescence ratio was found to be 1.08 ± 0.086.

Take TGTACTTCTT: the switch fluorescence ratio came out at 1.24 ± 0.3.

On to TGTAGCAGGT, for which the switch fluorescence ratio turned out to be 1.155 ± 0.0025.

With TGTAGGAGGA, the switch fluorescence ratio is 1.01 ± 0.017.

Regarding TGTAGGGCGA, the switch fluorescence ratio turned out to be 0.99 ± 0.034.

Turning to TGTAGGGGCA, the switch fluorescence ratio stood at 0.99 ± 0.014.

Take TGTAGGGGGA: the switch fluorescence ratio turned out to be 0.999 ± 0.052.

For TGTAGGGGTC, the switch fluorescence ratio was found to be 1.01 ± 0.011.

On to TGTAGGGTCA, for which the switch fluorescence ratio stood at 0.9819 ± 0.0023.

As to TGTAGGTAAA, the switch fluorescence ratio stood at 0.997 ± 0.029.

Take TGTAGGTGTT: the switch fluorescence ratio was determined as 0.999 ± 0.077.

With TGTAGTAGGT, the switch fluorescence ratio is 1.004 ± 0.002.

Regarding TGTAGTATCG, the switch fluorescence ratio came out at 1.016 ± 0.0045.

Take TGTATAAGGT: the switch fluorescence ratio was found to be 0.966 ± 0.023.

For the sequence TGTATGATGG, the switch fluorescence ratio was determined as 1.02 ± 0.031.

In the case of TGTATGGGGA, the switch fluorescence ratio was found to be 0.9997 ± 0.004.

In the case of TGTATGGGGG, the switch fluorescence ratio was determined as 0.946 ± 0.038.

Consider TGTATGTGAG, for which the switch fluorescence ratio stood at 0.98 ± 0.054.

In the case of TGTATTAGTA, the switch fluorescence ratio came out at 0.949 ± 0.0089.

As for TGTATTGCGG, the switch fluorescence ratio turned out to be 1.02 ± 0.0071.

As for TGTCAGGGGA, the switch fluorescence ratio amounted to 1.018 ± 0.007.

As for TGTCCGGGCT, the switch fluorescence ratio is 0.999 ± 0.028.

For the sequence TGTCCTGGCT, the switch fluorescence ratio turned out to be 1.02 ± 0.067.

TGTCGACCG: the switch fluorescence ratio was determined as 0.99 ± 0.014.

As for TGTCGAGGGG, the switch fluorescence ratio is 0.981 ± 0.017.

With TGTCGGATCG, the switch fluorescence ratio is 1 ± 0.013.

Turning to TGTCGGGCCT, the switch fluorescence ratio amounted to 1.03 ± 0.042.

As for TGTCGTGACA, the switch fluorescence ratio stood at 1.006 ± 0.0038.

For TGTCGTTCTT, the switch fluorescence ratio was 0.973 ± 0.013.

As to TGTCGTTTAC, the switch fluorescence ratio came out at 1.05 ± 0.021.

In the case of TGTCTTACCT, the switch fluorescence ratio is 1.147 ± 0.0093.

On to TGTGAAGGTT, for which the switch fluorescence ratio was found to be 0.986 ± 0.054.

For TGTGACGGGG, the switch fluorescence ratio was 1.02 ± 0.035.

For the sequence TGTGAGATTG, the switch fluorescence ratio turned out to be 1 ± 0.033.

As for TGTGAGTTAG, the switch fluorescence ratio amounted to 1 ± 0.025.

As for TGTGAGTTGC, the switch fluorescence ratio came to 0.949 ± 0.0069.

Take TGTGATAGTG: the switch fluorescence ratio was determined as 0.999 ± 0.053.

As to TGTGATAGTT, the switch fluorescence ratio turned out to be 0.999 ± 0.015.

With TGTGATATAT, the switch fluorescence ratio came out at 0.9877 ± 0.0011.

In the case of TGTGATGATG, the switch fluorescence ratio came out at 0.947 ± 0.036.

For the sequence TGTGATTGGG, the switch fluorescence ratio came to 0.988 ± 0.017.

On to TGTGATTTTT, for which the switch fluorescence ratio amounted to 1.01 ± 0.028.

As to TGTGCACATT, the switch fluorescence ratio was found to be 1.02 ± 0.024.

With TGTGCAGCG, the switch fluorescence ratio came out at 1.02 ± 0.022.

For the sequence TGTGCGACCT, the switch fluorescence ratio was found to be 1.16 ± 0.043.

For TGTGCGGGGG, the switch fluorescence ratio amounted to 1.02 ± 0.019.

Consider TGTGCGGGTT, for which the switch fluorescence ratio stood at 1.02 ± 0.02.

Take TGTGCTATTG: the switch fluorescence ratio worked out at 0.983 ± 0.058.
